Results from article PMC7826288, “Dynamics of TRF1 organizing a single human telomere” (Nucleic Acids Research, 2020).

Experiments:
TRF1 [1] = molecular target: T1, TRF1 (human, UniProt P54274); assay: single-molecule magnetic tweezers; details: delta-delta G of fork opening with vs without 10 nM TRF1 (61 vs 50 kBT); 20 mM HEPES pH 7.5, 100 mM NaCl, 1 mM EDTA, 0.0063% Tween-20; EMSA 30 min on ice, 5% PAGE in 1x TBE at 4 C; magnetic tweezers at 23 C
TRF1 [2] = molecular target: T1, TRF1; assay: EMSA; dimer concentration; Hill fit; 10 nM DNA, n=3; 20 mM HEPES pH 7.5, 100 mM NaCl, 1 mM EDTA, 0.0063% Tween-20; EMSA 30 min on ice, 5% PAGE in 1x TBE at 4 C; magnetic tweezers at 23 C; details: protein: recombinant; tags: trx tag (modified pET32a, Ni-NTA) removed with 3C protease; chain copies: 2; label: FAM on strand 2 (printed as FAM-CTAACCC..., 5'); blunt

T1 sequence (P54274 3-439): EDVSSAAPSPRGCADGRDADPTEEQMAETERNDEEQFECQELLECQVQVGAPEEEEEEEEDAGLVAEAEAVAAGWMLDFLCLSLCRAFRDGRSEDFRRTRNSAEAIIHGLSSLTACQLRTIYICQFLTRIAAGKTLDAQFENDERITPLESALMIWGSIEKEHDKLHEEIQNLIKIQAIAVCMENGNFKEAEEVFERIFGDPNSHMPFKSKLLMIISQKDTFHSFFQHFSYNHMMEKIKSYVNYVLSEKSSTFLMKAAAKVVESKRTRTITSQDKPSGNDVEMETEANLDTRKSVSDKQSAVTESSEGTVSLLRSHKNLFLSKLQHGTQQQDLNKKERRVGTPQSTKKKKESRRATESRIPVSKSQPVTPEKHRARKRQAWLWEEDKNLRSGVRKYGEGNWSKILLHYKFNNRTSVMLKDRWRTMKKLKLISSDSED

## short telomeric hairpin (13 TTAGGG repeats)
TRF1 [1]
  binding signal: 11 kBT

B1: telomeric dsDNA (two TTAGGG sites) (dsDNA)
DNA 1: GTTAGGGTTAGGGTTAG
DNA 2: CTAACCCTAACCCTAAC
TRF1 [2]
  Kd: 17.5 ± 0.7 nM
